Biological target: Growth arrest-specific protein 6 (GAS6) (UniProt Q63772)
Chain of UniProt Q63772 (Q63772 28-674): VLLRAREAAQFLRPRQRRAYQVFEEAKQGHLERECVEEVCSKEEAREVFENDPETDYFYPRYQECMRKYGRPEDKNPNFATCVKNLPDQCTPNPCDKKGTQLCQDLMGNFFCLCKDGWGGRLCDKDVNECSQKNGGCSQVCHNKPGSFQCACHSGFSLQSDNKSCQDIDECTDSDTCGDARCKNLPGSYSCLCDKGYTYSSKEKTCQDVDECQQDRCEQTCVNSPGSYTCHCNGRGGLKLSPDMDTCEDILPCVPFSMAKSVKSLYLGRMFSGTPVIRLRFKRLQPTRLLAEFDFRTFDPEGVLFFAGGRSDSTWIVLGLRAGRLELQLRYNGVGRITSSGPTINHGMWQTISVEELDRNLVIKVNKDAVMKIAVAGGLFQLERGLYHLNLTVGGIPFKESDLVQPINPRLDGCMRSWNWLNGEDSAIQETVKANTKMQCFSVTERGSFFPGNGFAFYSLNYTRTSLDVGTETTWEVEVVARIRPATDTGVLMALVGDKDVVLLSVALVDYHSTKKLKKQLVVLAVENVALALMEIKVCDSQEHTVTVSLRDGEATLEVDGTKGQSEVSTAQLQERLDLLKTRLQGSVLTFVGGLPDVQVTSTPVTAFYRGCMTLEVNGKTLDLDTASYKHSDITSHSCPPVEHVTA

AXL-Fc protein fragment (soluble form of AXL) (Fc fusion)
proliferation of RSC96 cells (WST-1) treated with AXL-Fc, percent decrease after 24 h, 48 h and 72 h (31.3%, 35.1%, 43.1%): 43.1 % decreased

Source: paper PMC5814221
